Data set [1] can be described thus: melting temperature (DSF); higher = more thermostable. Here is the method:
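Candidate PET hydrolases were expressed in E. coli C41(DE3) in 2 mL autoinduction cultures in 24-deep-well plates, Ni-bead purified and released by SUMO protease cleavage on an OT-2 robot. Yield per well was measured by BCA; values below 25 ug (0.1 mg/mL) are below the detection threshold. Melting temperature was measured by differential scanning fluorimetry with Sypro Orange, ramping from 25 C at 0.3 C/step.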

A short description of data set [2]: purified protein yield per well (BCA); higher = higher soluble expression. The gist of the method:
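Expression was done in E. coli C41(DE3), using 2 mL autoinduction cultures with 100 µg/mL kanamycin incubated at 37 °C for 2 h and at 18 °C for 40 h. Protein was purified on Ni-charged magnetic beads and released by SUMO protease cleavage. Yield of purified protein per well was measured with the Pierce Rapid Gold BCA kit; values below 25 ug (0.1 mg/mL) are below detection.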

Data set [3] in a line: PET hydrolysis, aromatic products released after 48 h (umol product/mg enzyme); higher = more PET depolymerization activity. In short, it runs like this: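 Tagless, SUMO-cleaved candidate enzymes were purified on nickel beads, and 5 μg (50 μL) was added to 3.5 mg amorphous PET film or crystalline PET powder in 450 μL buffer. Buffers were 50 mM NaCitrate (pH 4.5, 5.5), 50 mM NaPhosphate (pH 6.5, 7.5) or glycine (pH 8.5). Sealed plates were incubated 48 h at 40 or 60 °C without shaking. PET hydrolysis activity is the aromatic product in the supernatant, read by absorbance at 260 and 280 nm against buffer blanks and expressed per mg enzyme.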

The mark [4] stands for this setting: substrate: aFilm, 40 °C, pH 4.5.
[5] abbreviates: substrate: aFilm, 40 °C, pH 5.5.
Setting [6] is: substrate: aFilm, 40 °C, pH 6.5.
[7] abbreviates: substrate: aFilm, 40 °C, pH 7.5.
Setting [8] is: substrate: aFilm, 60 °C, pH 4.5.
[9] abbreviates: substrate: aFilm, 60 °C, pH 5.5.
Setting [10] is: substrate: aFilm, 60 °C, pH 6.5.
[11] abbreviates: substrate: aFilm, 60 °C, pH 7.5.
Where [12] appears, read: substrate: cryPow, 40 °C, pH 4.5.
Where [13] appears, read: substrate: cryPow, 40 °C, pH 5.5.
The mark [14] stands for this setting: substrate: cryPow, 40 °C, pH 6.5.
Where [15] appears, read: substrate: cryPow, 40 °C, pH 7.5.
Where [16] appears, read: substrate: cryPow, 60 °C, pH 4.5.
[17] abbreviates: substrate: cryPow, 60 °C, pH 5.5.
[18] abbreviates: substrate: cryPow, 60 °C, pH 6.5.
Where [19] appears, read: substrate: cryPow, 60 °C, pH 7.5.

± gives the standard deviation of the averaged measurements.

In data set [1], “ATNPYERGPAPTGTSVAADRGPFATAQLTVAKGNGFGGGVVYYPTDTSQGTFGAIAIAPGYGTEWRWYAWLGPRLASFGFVVLGIETNSLDDYADARGAQLLSALDWLVDSSPVRDRVDRTRLAVGGHSMGGGGALTAAIQRPSLMTAIGMAPYVPDGILRTIKIPTVLFGGQTDTTVTPSYLASAYATIPATVQRAYPEIANEGHGFAAGGGGGNSGAFARTMMIWMKVFIDKDTRYTGFLCPTLSNMSGISKYQASCPLGPTSGPSQSPSSSPSSTPSSSPSSTPSVSPSSTPSASPPGGPCRATYRTVNSWSGGYQGEVTVTAGGSAVNGWTVKWALSGGQSVTQVWNGTLSASGSNVSVSNASYNGSLGAGASTTFGFLANGTPSTPSPTCTSP [ESM021]” returned a melting temperature of 68.8 C. In addition, the “purified protein yield per well” value in data set [2] came to 275 µg. Further, the PET hydrolysis in data set [3] (setting [4]), in data set [3] (setting [5]), in data set [3] (setting [6]), in data set [3] (setting [7]), in data set [3] (setting [8]) and in data set [3] (setting [9]) was < 3 throughout. Moreover, the PET hydrolysis in data set [3] (setting [10]) was < 3; in data set [3] (setting [11]), < 3; in data set [3] (setting [12]), < 3; in data set [3] (setting [13]) it was 4.5 ± 0.71; in data set [3] (setting [14]), 9; in data set [3] (setting [15]), 9 ± 1.4. The PET hydrolysis in data set [3] (setting [16]), in data set [3] (setting [17]), in data set [3] (setting [18]) and in data set [3] (setting [19]) was < 3 throughout.
Sequence “MAQTSSCSLMGDVDGSGAIDIVDALLVAQAYVGLNPANYNDACADVDCSDSANIVDALLVAQLYVGLISSFPCEVTPEPTGVSTPTPGGAISIACGSSSAVGSFQADEYYSGGSTYNNSNTVDVSLITDNPPPAALFNNERYGEMSYTIPGFTAGGTYAVTLYFAETYLTSSGSRQFNVSINGTAVLSSFDIYAAAGGQNRAVARAFTTTADSGGQIVIQFTSVTENPKINGISIQAGTAPTPGPTATPGPTSENPYERGPDPSLESVAASRGTFATAELTLSPGNGFGGGFIYYPTDTSLGTWAAVAICPGYTAKFANEETWMGHWLASFGFVVIGIETNTTTDSVDARGTQLLAALDYLTQQSAVRDRVDPDRLMVMGHSAGGGGAFTAAVQRSSLKTVVGLAPASASNMGSLRMPVMIISGQYDDVITPSYINGIWTSLSPTIQRAWIELANNDHLSFTRSNSTEMRVLIPWMKIFLDNDTRYTQFLCPLADSSGISKYENSCPLVP [TEP011]” showed a melting temperature in data set [1] of 64.6 C. The “purified protein yield per well” value in data set [2] amounted to 30.6 µg. For the same sequence, the PET hydrolysis in data set [3] (setting [12]), in data set [3] (setting [13]), in data set [3] (setting [14]) and in data set [3] (setting [15]) was < 3 throughout.
The sequence “ADNPYQRGPNPTAASIAATTGPFAIASVSVARGNGFGGGVIYYPTDTSQGTFGAIAISPGLNGTWPGIAWLGPRLASQGFVVFGIETNNLNDSPTSRGTQLLAALDYLTQRSSVRTRVDATRLAVAGHSMGGGGALDAALRRPSLQAAIGNAPYLPSGNLSTDRVPTLIYAMQNDTLVPPSRLTTMYNTIPATTERGYIQITGAGHNYIGQPSTNLARTMIPWFKIFIDNDTRFSQFLCPLSNMSGISQYRNSCPLI [ESM159]” displayed a melting temperature in data set [1] of 57.4 C. Moreover, in data set [2], the “purified protein yield per well” value is 371 µg. Further, the PET hydrolysis in data set [3] (setting [4]) is < 3; in data set [3] (setting [5]) it was < 3; in data set [3] (setting [6]) it was < 3; in data set [3] (setting [7]) it was 2 ± 2.8; in data set [3] (setting [8]), < 3; in data set [3] (setting [9]), < 3. Besides, the PET hydrolysis in data set [3] (setting [10]) is < 3; in data set [3] (setting [11]) it was < 3; in data set [3] (setting [12]) it was < 3; in data set [3] (setting [13]), 15.5 ± 6.4; in data set [3] (setting [14]), 46.5 ± 3.5; in data set [3] (setting [15]), 74.5 ± 7.8. The PET hydrolysis in data set [3] (setting [16]) was < 3; in data set [3] (setting [17]) it was < 3; in data set [3] (setting [18]) it was 6.5 ± 2.1; in data set [3] (setting [19]) it was 13 ± 1.4.
Regarding “GRVMAASDSGTAADERVYAEPSVDPASVGSAGRNPYERGPEPTLASVAAEYGPFDTDQLTVPPGHGFNGGYIYYPTDTSQTFGAVAIVPGYTALFADEEAWMGPRLASFGFVVIGIETNSRDDWDIARGEQLLAALDYLVHHSPVRARIDANRLAVVGHSMGGGGALFAATQRPSLKAVVALAPYFPSGSLAAIRVPTMIIGGQDDTVVTPSYLDDLYASRPAHTPGAYLMLADADHLFATRPNTVEMRLLIPWLKIFVDHDTRYTQFLCPVADRSGIARHHVT [TEP126]”, in data set [1], the melting temperature came out at 55.9 C. Besides, in data set [2], the “purified protein yield per well” value came out at 166 µg. In addition, the PET hydrolysis in data set [3] (setting [12]), in data set [3] (setting [13]), in data set [3] (setting [14]), in data set [3] (setting [15]), in data set [3] (setting [16]) and in data set [3] (setting [17]) was < 3 each time. The PET hydrolysis in data set [3] (setting [18]) and in data set [3] (setting [19]) was < 3 in each case.
As to “ADLLSQGRPATASSTEKESTPASAAVDGDTGTRWSSTFGDPQWLQVDLGATATLSRIVLRWEAAYARTFRIQTSDDGTAWTTVHSTTTGAGGVQTLDVNGTGRYVRLHGTQRGTLYGYSLWEFQVYGSGDGTPPDGTIPDPTTASLEAAAGPLPTAAYTVPSPSGYGSGTVTYPTSGGAYPGVVLMPGYQGTQENLRWLAPRLASWGFVVLNVGTTTLLDDPASRGRQISAAGIQLLALGGTSGNPLSGKLDGTLGAVGHSMGGGGVMAALRDDPRFRAGVPTAPYYPNMNFSQVTDPTFFLTCQSDPVAHGNTYAVPWYTTMSRAEKLYVEVPGDHLCPMTGYGDKARQGKWIVSFLSLWLRADTRFGPFLCGPAREADKNNTALVTRWMDTCPF [TEP160]”, the melting temperature in data set [1] is 68.5 C. In addition, the “purified protein yield per well” value in data set [2] turned out to be 31 µg. The PET hydrolysis in data set [3] (setting [12]), in data set [3] (setting [13]), in data set [3] (setting [14]) and in data set [3] (setting [15]) was < 3 in each case.
